# According to patent US20190270997:
# Assays:
# [1] = biological target: HA-tagged KMT2D (full length, wild type) (UniProt O14686)
# [2] = biological target: V5-tagged KMT2D fragment (1222-1819) (UniProt O14686)
# HA-tagged KMT2D S1331A = HA-tagged KMT2D S1331A (UniProt O14686)
# recombinant His-AKT (MRC-PPU Reagents DU1850), sequence (P31749 whole entry): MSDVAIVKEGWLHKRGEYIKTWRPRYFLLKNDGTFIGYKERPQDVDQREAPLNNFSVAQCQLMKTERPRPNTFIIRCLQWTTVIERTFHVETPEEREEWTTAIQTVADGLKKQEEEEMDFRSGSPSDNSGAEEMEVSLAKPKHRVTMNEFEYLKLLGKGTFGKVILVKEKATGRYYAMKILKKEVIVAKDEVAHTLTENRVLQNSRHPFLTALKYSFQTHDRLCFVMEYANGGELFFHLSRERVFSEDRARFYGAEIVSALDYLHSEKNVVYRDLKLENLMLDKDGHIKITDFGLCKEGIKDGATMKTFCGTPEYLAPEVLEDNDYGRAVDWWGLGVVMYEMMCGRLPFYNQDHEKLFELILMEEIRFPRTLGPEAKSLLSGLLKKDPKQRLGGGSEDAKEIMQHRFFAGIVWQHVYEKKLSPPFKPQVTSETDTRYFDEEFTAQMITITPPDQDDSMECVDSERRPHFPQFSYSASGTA
substance,measurement,setting,value
recombinant His-AKT (MRC-PPU Reagents DU1850),in vitro kinase assay; phosphorylation detected by phospho-RXRXX(S/T) and phospho-KMT2D (S1331) antibodies,[1],The kinase assay confirmed the ability of AKT to directly phosphorylate S1331
same,in vitro kinase assay with the KMT2D (1222-1819) fragment as substrate (FIG. 11C),[2],The kinase assay confirmed the ability of AKT to directly phosphorylate S1331
same,in vitro kinase assay; phosphorylation detected by phospho-RXRXX(S/T) and phospho-KMT2D (S1331) antibodies,HA-tagged KMT2D S1331A,Mutation of serine to alanine (S1331A) completely abrogated the ability of AKT to phosphorylate KMT2D in vitro
